Experimental data taken from the Human Domainome abundance scans (Beltran et al. 2025).
± gives the uncertainty stated by the source.

B1: Glucocorticoid receptor, residues 419 to 494; numbered along this chain, P04150 (parent)
chain: KLCLVCSDEASGCHYGVLTCGSCKVFFKRAVEGQHNYLCAGRNDCIIDKIRRKNCPACRYRKCLQAGMNLEARKTK

Variants of: B1
Assay: abundance fitness (aPCA) (normalised: wild type 0, dead -1); higher = more abundant; growth selection in yeast, the domain comes from the species named
Conditions: Homo sapiens

Variant | abundance fitness
A72D | -0.017 ± 0.06
A72S | -0.067 ± 0.042
I50V | 0.013 ± 0.036
I50E | -0.028 ± 0.047
K49D | -0.164 ± 0.069
K49R | -0.004 ± 0.029
K49S | -0.037 ± 0.041
E32F | -0.192 ± 0.074
E32A | -0.166 ± 0.041
E32W | -0.201 ± 0.046
E32P | -0.388 ± 0.073
G21Y | -0.031 ± 0.077
G21T | -0.031 ± 0.046
G21C | -0.064 ± 0.06
I46S | 0.005 ± 0.038
I46L | -0.039 ± 0.031
C23R | -0.056 ± 0.36
D48E | -0.072 ± 0.043
D48W | -0.415 ± 0.049
D48K | -0.487 ± 0.092
C6T | -1.14 ± 0.24

Variant | abundance fitness
C6A | -0.964 ± 0.15
L18P | -0.004 ± 0.055
L18F | -0.002 ± 0.067
L18H | -0.012 ± 0.08
L18M | -0.077 ± 0.056
L18W | -0.01 ± 0.047
Q65D | 0.045 ± 0.071
Q65H | 0.09 ± 0.062
Q65R | -0.053 ± 0.031
N54D | -0.015 ± 0.061
N54A | 0.05 ± 0.037
N54H | 0.011 ± 0.067
N54K | 0.049 ± 0.043
N54V | -0.025 ± 0.035
N54S | -0.081 ± 0.043
N54I | 0.014 ± 0.094
N54Y | 0.014 ± 0.097
G16S | -0.182 ± 0.04
G16H | -0.291 ± 0.072
G16V | -0.738 ± 0.079
G16Q | -0.225 ± 0.049

Variant | abundance fitness
G16W | -0.83 ± 0.13
G16M | -0.369 ± 0.08
P56G | -0.085 ± 0.031
P56M | -0.053 ± 0.041
C20F | -0.717 ± 0.32
C20S | -1.4 ± 0.35
C20H | -0.918 ± 0.31
C20A | -0.837 ± 0.12
T75L | 0.054 ± 0.043
T75M | -0.004 ± 0.062
T75V | -0.064 ± 0.048
T75Q | -0.099 ± 0.063
Y37F | 0.011 ± 0.07
Y37D | -0.144 ± 0.068
Y37M | 0.013 ± 0.062
Y37K | -0.122 ± 0.061
R52S | -0.12 ± 0.043
R52I | -0.093 ± 0.11
R52M | -0.101 ± 0.052
R52T | -0.129 ± 0.043
M68W | -0.846 ± 0.1

Variant | abundance fitness
M68F | -0.076 ± 0.065
M68E | -0.529 ± 0.086
M68S | -0.771 ± 0.092
M68D | -0.768 ± 0.18
M68K | -0.632 ± 0.16
M68A | -0.377 ± 0.06
M68C | -0.12 ± 0.06
M68V | -0.472 ± 0.055
R59Y | -0.087 ± 0.074
R59A | -0.702 ± 0.067
R59E | -0.583 ± 0.067
L70H | 0.01 ± 0.073
L70D | -0.033 ± 0.072
L70W | -0.033 ± 0.04
L70Y | 0.023 ± 0.077
L70E | -0.021 ± 0.049
K53M | 0.001 ± 0.044
K53I | -0.091 ± 0.076
K53C | -0.263 ± 0.069
K53T | -0.024 ± 0.046
